{
  "source": "paper PMC4837482",
  "about": "“The complex binding mode of the peptide hormone H2 relaxin to its receptor RXFP1” (Nature Communications, 2016)",
  "binders": {"B1": {"name": "Europium-labelled H2 relaxin (ligand, human)", "chain 1": "{DTPA}-QLYSALANKCCHVGCTKRSLARFC", "chain 2": "DSWMEEVIKLCGRELVRAQIAICGMSTWS", "modifications": "not fully specified; ends and bridges not checked; also: DTPA cage loaded with Eu^3+", "notes": "A chain of human gene-2 (H2) relaxin; numbers count on: the A chain; B chain of human gene-2 (H2) relaxin; numbers count on: the B chain; also called Eu-H2 relaxin; Eu-H2"}},
  "experiment_in_all_cases": "europium-labelled ligand saturation binding on cells (time-resolved fluorescence); HEK293T cells transiently transfected with receptor, 96-well plates; increasing Eu-H2 relaxin (maximum 15 nM) with or without 1 μM unlabelled H2 relaxin, 1 h, room temperature; 20 mM HEPES pH 7.5, […] CaCl2, 50 mM NaCl, 0.01% NaN3, 1% BSA; one-site fit",
  "key": {"[1]": {"target": "RXFP1 C40A^ins, full length (human)"}, "[2]": {"target": "RXFP1 D42A, full length (human)"}, "[3]": {"target": "RXFP1 F50A, full length (human)"}, "[4]": {"target": "RXFP1 F50A^ins, full length (human)"}, "[5]": {"target": "RXFP1 F54A, full length (human)"}, "[6]": {"target": "RXFP1 F54A/Y58A, full length (human)"}, "[7]": {"target": "RXFP1 G41A, full length (human)"}, "[8]": {"target": "RXFP1 M60A, full length (human)"}, "[9]": {"target": "RXFP1 N43A, full length (human)"}, "[10]": {"target": "RXFP1 N43A/N44A, full length (human)"}, "[11]": {"target": "RXFP1 N44A, full length (human)"}, "[12]": {"target": "RXFP1 Q49A/F50A, full length (human)"}, "[13]": {"target": "RXFP1 S47A/L48A, full length (human)"}, "[14]": {"target": "RXFP1 T61A, full length (human)"}, "[15]": {"target": "RXFP1 Y58A, full length (human)"}},
  "note": "Where no end group is shown, it is not given here. The star is where a group is joined. DTPA = O=C(O)CN(CCN(CC(=O)O)CC(=O)O)CCN(CC(=O)O)CC(=O)*",
  "data": [
    {"binder": "B1", "values": [
      {"measurement": "Kd", "setting": "[1]", "result": 3.92, "unit": "nM"},
      {"measurement": "Kd", "setting": "[2]", "result": 20.7, "unit": "nM"},
      {"measurement": "Kd", "setting": "[3]", "result": 6.48, "unit": "nM"},
      {"measurement": "Kd", "setting": "[4]", "result": 16.7, "unit": "nM"},
      {"measurement": "Kd", "setting": "[5]", "result": 2.43, "unit": "nM"},
      {"measurement": "Kd", "setting": "[6]", "result": 6.51, "unit": "nM"},
      {"measurement": "Kd", "setting": "[7]", "result": 0.95, "unit": "nM"},
      {"measurement": "Kd", "setting": "[8]", "result": 1.08, "unit": "nM"},
      {"measurement": "Kd", "setting": "[9]", "result": 2.55, "unit": "nM"},
      {"measurement": "Kd", "setting": "[10]", "result": 3.28, "unit": "nM"},
      {"measurement": "Kd", "setting": "[11]", "result": 0.81, "unit": "nM"},
      {"measurement": "Kd", "setting": "[12]", "result": 6.74, "unit": "nM"},
      {"measurement": "Kd", "setting": "[13]", "result": 0.43, "unit": "nM"},
      {"measurement": "Kd", "setting": "[14]", "result": 0.69, "unit": "nM"},
      {"measurement": "Kd", "setting": "[15]", "result": 1.56, "unit": "nM"}
    ]}
  ]
}
